Several values for one entry are separate records, joined by “and”; a condition that tells them apart may be missing. Equal values may be shown once.
Molecular target: horseradish peroxidase (HRP) (horseradish) (UniProt P00433)
Assay: affinity precipitation at varied ligand to HRP ratio; peroxidase activity assay

Chain of UniProt P00433 (P00433 31-338): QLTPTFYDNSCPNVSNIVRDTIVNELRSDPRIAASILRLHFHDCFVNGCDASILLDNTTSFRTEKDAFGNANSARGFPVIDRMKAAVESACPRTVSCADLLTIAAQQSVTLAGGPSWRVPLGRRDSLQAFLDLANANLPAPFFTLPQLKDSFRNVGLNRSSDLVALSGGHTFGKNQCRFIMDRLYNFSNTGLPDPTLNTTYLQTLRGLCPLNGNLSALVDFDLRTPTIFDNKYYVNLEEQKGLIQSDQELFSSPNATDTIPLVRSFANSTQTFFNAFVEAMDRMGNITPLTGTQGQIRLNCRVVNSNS

With “RSL-ELP40 (fucose lectin from Ralstonia solanacearum fused by a 10 amino acid glycine rich linker to (designed binder)” the molar excess of ligand at which full recovery was approached (mol ligand per mol HRP) was 15 and 20.

Reference: patent US20150307546A1
